Laboratory results as given in patent publication US20170226167A1.
Where no end group is shown, it is not given here. [ ]: non-standard residue; d: D form. Met(O) = CS(=O)CC[C@H](N)C(=O)O; pS = N[C@@H](COP(=O)(O)O)C(=O)O

Tests used:
[1] = target: Recombinant bovine HSC70 (Stressgen) (bovine) (UniProt P19120); test: SPR (BIAcore 3000), bovine HSC70 immobilized, peptide at 25 µM, 1:1 Langmuir fit
[2] = target: Recombinant bovine HSC70 (Stressgen) (bovine) (UniProt P19120); test: SPR (BIAcore 3000), bovine HSC70 immobilized, peptide at 1.56 µM, 1:1 Langmuir fit
[3] = target: Recombinant bovine HSC70 (Stressgen) (bovine) (UniProt P19120); test: SPR (BIAcore 3000), bovine HSC70 immobilized, peptide at 12.5 µM, 1:1 Langmuir fit
[4] = target: Recombinant bovine HSC70 (Stressgen) (bovine) (UniProt P19120); test: SPR (BIAcore 3000), bovine HSC70 immobilized, peptide at 3.12 µM, 1:1 Langmuir fit
[5] = target: Recombinant bovine HSC70 (Stressgen) (bovine) (UniProt P19120); test: SPR (BIAcore 3000), bovine HSC70 immobilized, peptide at 6.25 µM, 1:1 Langmuir fit
[6] = target: Recombinant bovine HSC70 (Stressgen) (bovine) (UniProt P19120); test: SPR (BIAcore 3000), bovine HSC70 immobilized, peptide as analyte, 1:1 Langmuir fit, 25 C

Recombinant bovine HSC70 (Stressgen) (bovine), sequence (P19120 whole entry): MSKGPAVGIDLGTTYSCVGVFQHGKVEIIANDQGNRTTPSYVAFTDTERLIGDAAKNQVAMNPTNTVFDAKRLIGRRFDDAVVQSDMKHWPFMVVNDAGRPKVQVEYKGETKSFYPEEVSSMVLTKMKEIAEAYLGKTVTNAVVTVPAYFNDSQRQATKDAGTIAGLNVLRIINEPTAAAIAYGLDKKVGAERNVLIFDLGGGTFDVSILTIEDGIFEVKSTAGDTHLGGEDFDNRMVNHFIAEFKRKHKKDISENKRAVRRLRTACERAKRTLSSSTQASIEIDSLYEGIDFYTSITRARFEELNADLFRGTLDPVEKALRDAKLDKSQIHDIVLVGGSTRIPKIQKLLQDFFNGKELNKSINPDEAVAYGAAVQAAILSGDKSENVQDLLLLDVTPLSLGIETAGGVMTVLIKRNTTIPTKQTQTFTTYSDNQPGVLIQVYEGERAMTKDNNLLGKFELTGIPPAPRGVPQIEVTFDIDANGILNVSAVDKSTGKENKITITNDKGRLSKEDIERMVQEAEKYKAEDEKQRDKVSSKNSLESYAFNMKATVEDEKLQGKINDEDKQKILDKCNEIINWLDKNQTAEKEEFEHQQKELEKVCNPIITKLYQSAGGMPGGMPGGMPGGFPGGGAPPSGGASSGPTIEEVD

Binder: RIHMVYSKR[pS]GKPRGYAFIEY [P140 peptide (peptide consisting of SEQ ID NO: 1, in which serine at position 10 is phosphorylated)]
- Ka [1]: 144000 M⁻¹
- Kd [1]: 6.94 µM
- Req (RU) [1]: 65.2 RU
- kobs [1]: 0.0144 s⁻¹
- koff [1]: 0.00312 s⁻¹
- Ka [2]: 144000 M⁻¹
- Kd [2]: 6.94 µM
- Req (RU) [2]: 15.3 RU
- kobs [2]: 0.00382 s⁻¹
- koff [2]: 0.00312 s⁻¹
- Ka [3]: 144000 M⁻¹
- Kd [3]: 6.94 µM
- Req (RU) [3]: 53.6 RU
- kobs [3]: 0.00874 s⁻¹
- koff [3]: 0.00312 s⁻¹
- Ka [4]: 144000 M⁻¹
- Kd [4]: 6.94 µM
- Req (RU) [4]: 25.8 RU
- kobs [4]: 0.00452 s⁻¹
- koff [4]: 0.00312 s⁻¹
- Ka [5]: 144000 M⁻¹
- Kd [5]: 6.94 µM
- Req (RU) [5]: 39.5 RU
- kobs [5]: 0.00593 s⁻¹
- koff [5]: 0.00312 s⁻¹
- kon [6]: 450 M⁻¹ s⁻¹

Binder: RIH[Met(O)]VYSKR[pS]GKPRGYAFIEY
- Ka [1]: 524000 M⁻¹
- Kd [1]: 1.91 µM
- Req (RU) [1]: 36.3 RU
- kobs [1]: 0.031 s⁻¹
- koff [1]: 0.0022 s⁻¹
- Ka [2]: 524000 M⁻¹
- Kd [2]: 1.91 µM
- Req (RU) [2]: 17.6 RU
- kobs [2]: 0.004 s⁻¹
- koff [2]: 0.0022 s⁻¹
- Ka [3]: 524000 M⁻¹
- Kd [3]: 1.91 µM
- Req (RU) [3]: 33.9 RU
- kobs [3]: 0.0166 s⁻¹
- koff [3]: 0.0022 s⁻¹
- Ka [4]: 524000 M⁻¹
- Kd [4]: 1.91 µM
- Req (RU) [4]: 24.2 RU
- kobs [4]: 0.0058 s⁻¹
- koff [4]: 0.0022 s⁻¹
- Ka [5]: 524000 M⁻¹
- Kd [5]: 1.91 µM
- Req (RU) [5]: 29.9 RU
- kobs [5]: 0.0094 s⁻¹
- koff [5]: 0.0022 s⁻¹
- kon [6]: 1150 M⁻¹ s⁻¹
